Laboratory results taken from FireProtDB (doi:10.1016/s0022-2836(99)80018-7).

B1: Ribonuclease, P00648 (parent)
chain: MMKMEGIALKKRLSWISVCLLVLVSAAGMLFSTAAKTETSSHKAHTEAQVINTFDGVADYLQTYHKLPDNYITKSEAQALGWVASKGNLADVAPGKSIGGDIFSNREGKLPGKSGRTWREADINYTSGFRNSDRILYSSDWLIYKTTDHYQTFTKIR

Variants of: B1
Details: Bacillus amyloliquefaciens; pH 6.3; 25 °C; Urea; Fluorescence; MES 50 mM; reversible: yes; structure 1BNI; whole UniProt chain shown

Variant	ddG of mutation (higher = less stable)	denaturant m value	denaturant midpoint (higher = more stable)	unfolding free energy
MMKMEGIALKKRLSWISVCLLVLVSAAGMLFSTAAKTETSSHKAHTEAQVINTFAGVADYLQTYHKLPDNYITKSEAQALGWVASKGNLADVAPGKSIGGDIFSNREGKLPGKSGRTWREADINYTSGFRNSDRILYSSDWLIYKTTDHYQTFTKIR	0.99 kcal/mol	2.15 kcal/mol/M	4.12 M	8.94 kcal/mol
MMKMEGIALKKRLSWISVCLLVLVSAAGMLFSTAAKTETSSHKAHTEAQVINTFAGVAAYLQTYHKLPDNYITKSEAQALGWVASKGNLADVAPGKSIGGDIFSNREGKLPGKSGRTWREADINYTSGFRNSDRILYSSDWLIYKTTDHYQTFTKIR	0.89 kcal/mol	1.98 kcal/mol/M	4.16 M	9.04 kcal/mol
MMKMEGIALKKRLSWISVCLLVLVSAAGMLFSTAAKTETSSHKAHTEAQVINTFAGVAAYLQTYHKLPDNYITKSEAQALGWVASKGNLADVAPGKSIGGDIFSNREGKLPGKSGRTWREADINYTSGFRNSDRILYSSDWLIYKTTDHYQTFTKIA	-0.11 kcal/mol	2.16 kcal/mol/M	4.63 M	10 kcal/mol
MMKMEGIALKKRLSWISVCLLVLVSAAGMLFSTAAKTETSSHKAHTEAQVINTFAGVADYLQTYHKLPDNYITKSEAQALGWVASKGNLADVAPGKSIGGDIFSNREGKLPGKSGRTWREADINYTSGFRNSDRILYSSDWLIYKTTDHYQTFTKIA	0.47 kcal/mol	1.96 kcal/mol/M	4.36 M	9.46 kcal/mol
MMKMEGIALKKRLSWISVCLLVLVSAAGMLFSTAAKTETSSHKAHTEAQVINTFDGVAAYLQTYHKLPDNYITKSEAQALGWVASKGNLADVAPGKSIGGDIFSNREGKLPGKSGRTWREADINYTSGFRNSDRILYSSDWLIYKTTDHYQTFTKIR	0.34 kcal/mol	2.12 kcal/mol/M	4.42 M	9.59 kcal/mol
MMKMEGIALKKRLSWISVCLLVLVSAAGMLFSTAAKTETSSHKAHTEAQVINTFDGVAAYLQTYHKLPDNYITKSEAQALGWVASKGNLADVAPGKSIGGDIFSNREGKLPGKSGRTWREADINYTSGFRNSDRILYSSDWLIYKTTDHYQTFTKIA	-0.45 kcal/mol	2.14 kcal/mol/M	4.78 M	10.4 kcal/mol
MMKMEGIALKKRLSWISVCLLVLVSAAGMLFSTAAKTETSSHKAHTEAQVINTFDGVADYLQTYHKLPDNYITKSEAQALGWVASKGNLADVAPGKSIGGDIFSNREGKLPGKSGRTWREADINYTSGFRNSDRILYSSDWLIYKTTDHYQTFTKIA	0.46 kcal/mol	2.26 kcal/mol/M	4.37 M	9.47 kcal/mol
